For experiment [1], the target named is GFP-tagged VPS35L with complete deletion of the β-hairpin (human) (UniProt Q7Z3J2). As to the kind of experiment: co-IP.
Experiment [2] has as its target GFP-tagged VPS35L(I761G) (human) (UniProt Q7Z3J2). As to the kind of experiment: co-IP.

Chain of GFP-tagged VPS35L(I761G) (human) (Q7Z3J2 whole entry I761G): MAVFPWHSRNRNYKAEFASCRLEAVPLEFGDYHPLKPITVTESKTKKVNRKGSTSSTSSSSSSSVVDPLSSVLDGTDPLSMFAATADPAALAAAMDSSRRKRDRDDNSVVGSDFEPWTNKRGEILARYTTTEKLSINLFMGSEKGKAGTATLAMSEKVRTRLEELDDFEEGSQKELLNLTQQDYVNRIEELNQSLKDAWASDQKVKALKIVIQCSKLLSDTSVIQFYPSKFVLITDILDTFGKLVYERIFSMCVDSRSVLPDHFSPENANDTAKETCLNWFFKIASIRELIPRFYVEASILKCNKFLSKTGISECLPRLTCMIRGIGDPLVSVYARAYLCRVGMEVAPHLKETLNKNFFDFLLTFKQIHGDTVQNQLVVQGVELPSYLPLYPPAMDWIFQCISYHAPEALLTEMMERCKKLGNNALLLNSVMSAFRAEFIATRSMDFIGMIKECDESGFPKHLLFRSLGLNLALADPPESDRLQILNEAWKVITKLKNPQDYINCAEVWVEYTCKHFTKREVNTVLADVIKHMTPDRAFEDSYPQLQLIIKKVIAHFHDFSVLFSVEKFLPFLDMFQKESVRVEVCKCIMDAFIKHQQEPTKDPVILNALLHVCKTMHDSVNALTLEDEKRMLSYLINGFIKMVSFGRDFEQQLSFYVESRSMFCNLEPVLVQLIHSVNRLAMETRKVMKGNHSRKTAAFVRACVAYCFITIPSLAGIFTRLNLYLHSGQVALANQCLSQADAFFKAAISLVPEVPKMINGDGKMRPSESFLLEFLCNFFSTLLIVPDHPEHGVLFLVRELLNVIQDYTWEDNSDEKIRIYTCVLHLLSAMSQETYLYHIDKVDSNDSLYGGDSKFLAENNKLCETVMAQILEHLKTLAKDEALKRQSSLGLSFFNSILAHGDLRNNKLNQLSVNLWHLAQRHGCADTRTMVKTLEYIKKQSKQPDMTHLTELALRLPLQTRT
Chain of GFP-tagged VPS35L with complete deletion of the β-hairpin (human) (Q7Z3J2 whole entry, stated change not applied): as the sequence (Q7Z3J2 whole entry I761G) above, with G761I counted along it

As to “VPS29 (endogenous, HEK293T) (from UniProt Q9UBQ0 1-182) (natural protein)”, the percent reduction in binding (against wild type) in experiment [1] and in experiment [2] was over 50% in each case.

The values above are taken from doi:10.1101/2023.01.25.525455.
